{"source": "patent US12702697B2", "about": "“Compositions and methods for treatment of headache disorders and neuropathic pain” (Washington University, priority 2019, dated 2026)", "molecules": {"B1": {"name": "ld-IL2: Recombinant mouse IL2 (carrier-free; Biolegend), given as daily low-dose i.p. injection (protein, UniProt P04351 21-169, looked up)", "Interleukin-2": "APTSSSTSSSTAEAQQQQQQQQQQQQHLEQLLMDLQELLSRMENYRNLKLPRMLTFKFYLPKQATELKDLQCLEDELGPLRHVLDLTQSKSFQLEDAENFISNIRVTVVKLKGSDNTFECQFDDESATVVDFLRRWIAFCQSIISTSPQ"}}, "key": {"[1]": {"test_system": "IFNγ secretion by splenocytes", "assay": "IFNγ ELISA and ELISPOT of CD3/CD28-stimulated splenocytes", "type": "cell-based, mouse", "experimental": "To quantify interferon g (IFNγ) secretion, splenocytes were plated in 24-well plates (5 3 106 per well) and stimulated with antiCD3 and anti-CD28 antibodies ([…]) in 1 mL complete RPMI1640 media overnight. IFNγ in the supernatants were quantified by ELISA (430901; Biolegend).\nELISPOT assay was performed to determine the number of INFg-secreting cells. Splenocytes were plated at 5×10^4 cells per well and incubated overnight with RPMI1640 media containing anti-CD3 and anti-CD28 antibodies ([…]) for stimulation. IFNg was detected using a colorimetric reagent kit (R&D SEL485 and SEL002). Following development, images were captured and analyzed on the ImmunoSpot7.0 plate reader (Cellular Technologies, Kennesaw, GA)."}, "[2]": {"test_system": "SNI-induced punctate and dynamic allodynia in mice", "assay": "Mouse model of spared nerve injury (SNI): punctate (von Frey) and dynamic (brush) allodynia", "type": "in vivo", "source_text": "Mouse model of SNI. Mice were anesthetized with 3-4% isoflurane in an induction chamber until losing the righting reflex. Anesthesia was maintained by 1.5-2% isoflurane through a nose cone. After skin and muscle incision to expose the right sciatic nerve in the thigh region, we tightly ligated two branches (sural and common peroneal nerves) with 7-0 silk suture (Braintree Scientific, Braintree, MA) and transected ~2 mm of the nerve distal to the ligature. The third branch of the sciatic nerve (tibial nerve) was left intact, and caution was taken not to stretch or contact the spared nerve. In sham mice the right sciatic nerve and its branches were exposed but were not touched. After the surgery, the overlying muscle and skin layers were closed separately with 6-0 vicryl suture and interrupted nylon suture for the skin incision, respectively.\nResponse to punctate mechanical stimuli on the hindpaw. Mice were habituated in individual clear plexiglass boxes (11×11×15 cm) for 1-2 hours. A series of calibrated von Frey filaments were used to apply mechanical stimuli to the medial plantar surface of the hindpaw (the tibial nerve territory). We used the up-down paradigm to determine the 50% withdrawal threshold.\nResponse to dynamic mechanical stimuli on the hindpaw. Mice were habituated in individual clear plexiglass boxes (11×11×15 cm) for 1-2 hours. The medial plantar surface of the hindpaw (tibial nerve territory) was stimulated by light stroking with a blunt paintbrush (5/0, Princeton Art & Brush Co., Princeton, NJ) from heel to toe at ~2 cm/second. The behavior was scored as described previously. Score 0 indicates no evoked movement or lifting the stimulated paw for less than 1 second. Score 1 indicates a sustained lifting (more than 2 seconds) of the stimulated paw toward the body or a single gentle flinching of the stimulated paw. Score 2 indicates a strong lateral lift of the stimulated paw above the level of the body or a startle-like jump. Score 3 indicates multiple flinching or licking of the stimulated paw. Each paw was tested 3 times, with minimal interval of 3 minutes. The scores of 3 tests were averaged to indicate the response to dynamic mechanical stimuli.\nLd-IL2 treatment. Recombinant mouse IL2 (carrier-free, Biolegend, San Diego, CA) was freshly diluted from the stock (0.5-1 mg/ml aliquots at −80° C.) every day. Each mouse received daily intraperitoneal (i.p.) injection of 1 μg IL2 in 100 μl saline at various durations. The control mice received daily i.p. injections of 100 μl saline. Note that on the days that the mouse behaviors were tested, IL2 was always injected after completing the behavioral tests. […]"}, "Treg cells": {"test_system": "Treg cells", "assay": "Flow cytometry of T-cell subsets in peripheral blood, cervical LNs and spleen", "type": "in vivo, mouse", "source_text": "Blood, spleen, and cervical lymph node cell preparation, antibody staining, flow cytometry, and enzyme-linked immunosorbent assay (ELISA). Adult male DEREG and C57BL/6J mice received 15 daily injections of saline or IL2. About […] blood was collected from each mouse by submandibular bleeding. Mice used for blood collection were not used in the behavioral tests. Spleen and cervical LN tissues were ground and filtered through a sterile […] cell strainer. After lysis of red blood cells (420301; Biolegend), cells were pelleted and resuspended for antibody staining, ELISA, and ELISPOT assay. Live cells were counted by the Vi-CELL Automated Cell Viability Analyzer (Beckman, Chaska, MN).\nAbout 2×10^6 suspension cells were stained with the following antibodies from Biolegend that recognizes mouse CD3e (clone 145-2C11), CD4 (clone GK1.5 and RM4-5), CD8 (clone 53-6.7), and CD25 (clone PC61). The percentages of individual cell phenotypes were determined using flow cytometric analysis. Data were collected with FACScan (Becton Dickinson, Franklin Lakes, NJ) and analyzed with CellQuest Pro (Becton Dickinson) and Rainbow X Alias (Cytek) softwares."}, "[3]": {"conditions": "15 days of ld-IL2, C57BL/6J males"}}, "data": [{"molecule": "B1", "values": [{"measurement": "amount of CD3/CD28 stimulation-induced IFNγ secretion", "setting": "[1]; ELISA, cells from IL-2-treated mice", "result": "significantly reduced"}, {"measurement": "number of splenocytes secreting IFNγ", "setting": "[1]; ELISPOT, 15 days of ld-IL2", "result": "not altered"}, {"measurement": "days of ld-IL2 treatment after which the mechanical threshold started to reverse", "setting": "[2]; 3-week ld-IL2 started 7 days post-SNI, ipsilateral paw", "result": 3, "unit": "days"}, {"measurement": "basal punctate and dynamic mechanical sensitivity", "setting": "[2]; 5 days of ld-IL2 injections before SNI, female Swiss Webster", "result": "not altered"}, {"measurement": "mechanical threshold of SNI+IL2 versus sham+IL2 group", "setting": "[2]; after 7 days of IL2 treatment (day 14-28)", "result": "not different"}, {"measurement": "dynamic allodynia", "setting": "[2]; after 7 days of IL2 treatment (day 15-29)", "result": "completely reversed"}, {"measurement": "integrated AOC of withdrawal threshold between day 10 and 28 post-SNI versus SNI+saline", "setting": "[2]; delayed ld-IL2", "result": "significantly lower"}, {"measurement": "integrated AOC of dynamic allodynia score versus SNI+saline", "setting": "[2]; delayed ld-IL2, between day 10 and 28 post-SNI", "result": "significantly lower"}, {"measurement": "responses to brush stimuli of the contralateral paw and of sham mice", "setting": "[2]; ld-IL2", "result": "did not change"}, {"measurement": "SNI-caused reduction of the withdrawal threshold", "setting": "[2]; ld-IL2 1 μg/mouse/day i.p. from 5 days before to 21 days post-SNI (saline: threshold about 20% of baseline)", "result": 50, "unit": "%"}, {"measurement": "mechanical threshold of the contralateral (left) paw", "setting": "[2]; ld-IL2, SNI mice", "result": "did not change"}, {"measurement": "development of hyper-sensitivity to brush stimuli (dynamic allodynia)", "setting": "[2]; ld-IL2 pretreatment", "result": "prevents the development"}, {"measurement": "magnitude of punctate allodynia (AOC day 0 to day 22 post-SNI)", "setting": "[2]; ld-IL2 pretreatment", "result": "significantly attenuated"}, {"measurement": "percentage of EGFP+ Treg cells in the cervical LNs", "setting": "Treg cells; 15 daily ld-IL2 injections, male DEREG mice", "result": "increased significantly"}, {"measurement": "number and frequency of CD25+CD4+ Treg cells in the spleen", "setting": "Treg cells; [3]", "result": "doubled"}, {"measurement": "number of CD8+ cells in the spleen", "setting": "Treg cells; [3]", "result": "increased only slightly"}, {"measurement": "increase of the frequency of EGFP+ Treg cells in the peripheral blood", "setting": "Treg cells; after 5 daily ld-IL2 injections i.p., male DEREG mice", "result": "more than 100%"}, {"measurement": "frequencies of CD4+ and CD3+ T cells in the blood or LNs", "setting": "Treg cells; daily ld-IL2, 15 days", "result": "not altered"}]}]}
